Measurements as given in IntAct's records for PubMed 15743816.

B1: Bud emergence protein 1 (Saccharomyces cerevisiae), P29366 (parent)
chain: MLKNFKLSKRDSNGSKGRITSADISTPSHDNGSVIKHIKTVPVRYLSSSSTPVKSQRDSSPKNRHNSKDITSPEKVIKAKYSYQAQTSKELSFMEGEFFYVSGDEKDWYKASNPSTGKEGVVPKTYFEVFDRTKPSSVNGSNSSSRKVTNDSLNMGSLYAIVLYDFKAEKADELTTYVGENLFICAHHNCEWFIAKPIGRLGGPGLVPVGFVSIIDIATGYATGNDVIEDIKSVNLPTVQEWKSNIARYKASNISLGSVEQQQQQSITKPQNKSAKLVDGELLVKASVESFGLEDEKYWFLVCCELSNGKTRQLKRYYQDFYDLQVQLLDAFPAEAGKLRDAGGQWSKRIMPYIPGPVPYVTNSITKKRKEDLNIYVADLVNLPDYISRSEMVHSLFVVLNNGFDREFERDENQNNIKTLQENDTATFATASQTSNFASTNQDNTLTGEDLKLNKKLSDLSLSGSKQAPAQSTSGLKTTKIKFYYKDDIFALMLKGDTTYKELRSKIAPRIDTDNFKLQTKLFDGSGEEIKTDSQVSNIIQAKLKISVHDI
partner: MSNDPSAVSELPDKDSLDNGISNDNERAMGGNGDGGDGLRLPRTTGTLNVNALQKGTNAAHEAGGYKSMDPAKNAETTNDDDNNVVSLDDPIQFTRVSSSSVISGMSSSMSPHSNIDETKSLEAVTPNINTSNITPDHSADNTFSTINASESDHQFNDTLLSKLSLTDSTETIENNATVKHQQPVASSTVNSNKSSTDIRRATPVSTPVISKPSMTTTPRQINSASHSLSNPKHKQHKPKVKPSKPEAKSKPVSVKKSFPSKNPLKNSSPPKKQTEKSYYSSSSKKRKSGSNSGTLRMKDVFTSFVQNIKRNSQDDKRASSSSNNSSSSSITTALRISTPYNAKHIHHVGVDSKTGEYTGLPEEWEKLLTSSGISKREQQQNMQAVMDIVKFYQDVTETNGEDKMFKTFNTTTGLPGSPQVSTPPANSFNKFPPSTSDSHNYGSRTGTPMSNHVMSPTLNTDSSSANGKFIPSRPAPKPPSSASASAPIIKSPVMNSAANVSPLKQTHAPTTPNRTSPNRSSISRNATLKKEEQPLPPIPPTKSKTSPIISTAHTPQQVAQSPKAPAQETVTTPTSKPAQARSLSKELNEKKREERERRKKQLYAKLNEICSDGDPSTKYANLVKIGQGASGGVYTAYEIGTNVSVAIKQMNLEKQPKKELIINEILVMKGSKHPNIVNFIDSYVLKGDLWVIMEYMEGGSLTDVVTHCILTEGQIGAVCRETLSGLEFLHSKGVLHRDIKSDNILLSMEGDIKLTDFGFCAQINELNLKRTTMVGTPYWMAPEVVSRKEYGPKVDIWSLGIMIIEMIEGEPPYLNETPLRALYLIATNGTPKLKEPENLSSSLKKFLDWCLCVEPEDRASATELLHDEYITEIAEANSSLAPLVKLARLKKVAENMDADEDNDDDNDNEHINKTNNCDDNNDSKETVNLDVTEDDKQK
B2: Serine/threonine-protein kinase STE20 (Saccharomyces cerevisiae), Q03497 (parent)
chain: B1 partner
partner: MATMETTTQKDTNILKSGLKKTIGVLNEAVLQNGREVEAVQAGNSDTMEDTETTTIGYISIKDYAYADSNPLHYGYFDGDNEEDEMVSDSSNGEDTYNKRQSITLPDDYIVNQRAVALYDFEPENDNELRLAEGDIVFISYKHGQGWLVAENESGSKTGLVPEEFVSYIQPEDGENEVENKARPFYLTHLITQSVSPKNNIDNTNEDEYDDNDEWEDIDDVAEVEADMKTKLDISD
B3: Serine/threonine-protein kinase STE20 (Saccharomyces cerevisiae), Q03497 (parent)
chain: B1 partner
partner: B1 chain

Variants of: B1
Settings: with ste20_yeast STE20, Q03497

Effect of a mutation on the interaction, decreasing interaction:
MLKNFKLSKRDSNGSKGRITSADISTPSHDNGSVIKHIKTVPVRYLSSSSTPVKSQRDSSPKNRHNSKDITSPEKVIKAKYSYQAQTSKELSFMEGEFFYVSGDEKDWYKASNPSTGKEGVVPKTYFEVFDRTKPSSVNGSNSSSRKVTNDSLNMGSLYAIVLYDFKAEKADELTTYVGENLFICAHHNCEAFIAKPIGRLGGPGLVPVGFVSIIDIATGYATGNDVIEDIKSVNLPTVQEWKSNIARYKASNISLGSVEQQQQQSITKPQNKSAKLVDGELLVKASVESFGLEDEKYWFLVCCELSNGKTRQLKRYYQDFYDLQVQLLDAFPAEAGKLRDAGGQWSKRIMPYIPGPVPYVTNSITKKRKEDLNIYVADLVNLPDYISRSEMVHSLFVVLNNGFDREFERDENQNNIKTLQENDTATFATASQTSNFASTNQDNTLTGEDLKLNKKLSDLSLSGSKQAPAQSTSGLKTTKIKFYYKDDIFALMLKGDTTYKELRSKIAPRIDTDNFKLQTKLFDGSGEEIKTDSQVSNIIQAKLKISVHDI [W192A]

Variants of: B2
Settings: with nbp2_yeast NBP2, Q12163

Effect of a mutation on the interaction, decreasing interaction:
P475G;P477A

Variants of: B3
Settings: with bem1_yeast BEM1, P29366

Effect of a mutation on the interaction, decreasing interaction:
P472A
F470G
P479A
P480A
P475G
P477A
A476G
P475G;P477A
R474G
I471G
S473A

Variants of: B3
Settings: with bem1_yeast BEM1, P29366
Remark: another data set of the same source

Effect of a mutation on the interaction, decreasing interaction:
P475G;P477A
